Test results published in the nanobody polyreactivity screen of Harvey et al. (2022).

experiment: yeast display, Sf9 membrane polyspecificity reagent, FACS + sequencing; frameworks hold sequencing errors
Procedure, shortened: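 Nanobodies from a synthetic yeast display library (Saccharomyces cerevisiae BJ5465), induced 36–48 hours with galactose, were stained 1 hour at 4 °C with 10% biotinylated, detergent-solubilized Sf9 membrane reagent, enriched on streptavidin microbeads, then FACS-sorted. Anti-HA (expression) and streptavidin (reagent binding) fluorescence set low and high (top ~1%) gates. Polyreactivity labels come from the gate of origin. Genes were colony-PCR amplified, MiSeq 2 × 250 sequenced and filtered by CDR length.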

Question: Which “polyreactivity (PSR sort gate)” value does the source give for “QVQLVQSGGGLVQAGGSLSLSCAASGSIFNYNAMGWYRQAPGKERELVAAITSADGRTFYADSVKGRFTISRDNAKNTVYLQMNSLKPEDTAVYYCAAERTSRYSTYEYWGQGTQVTVSS” here?
Answer: low polyreactivity

Question: Which “polyreactivity (PSR sort gate)” value does the source give for “QVQLVQSGGGLVQAGGSLSLSCAASGSIFPGYTRGWYRQAPGKERELVAAISRRGGSTYYADSVKGRFTISRDNAKNPGYLQMNSLKPEDTAVYYCAKVPDYRFEYWGQGTQVTVSS” here?
Answer: high polyreactivity

Question: Which “polyreactivity (PSR sort gate)” value does the source give for “QVQLVQSVGGLVQAGGSLRLSCAATGRIFFSYAMGWYRQAPGKERELVAAISWDGGSTYYADSVKGRFTISRDNAKNTDYLQMTSLKPEDTAVSYCNADTHFPPSSSSYSPSLLDYWGQGTQVTVSS” here?
Answer: low polyreactivity

Question: With “QVQLVSSGGRLVQSGGSLRLSCAASGRTFYPYAMGWYRQAPGKERELVAGIRNSGTSTYYADSVKGRFTISRDNAKNTVYLQMNSLKPEVTAVYYCNARGYRNRGYGYDSWGQGTQVTVSS” as the sequence, how does the “polyreactivity (PSR sort gate)” value read?
Answer: high polyreactivity

Question: Which “polyreactivity (PSR sort gate)” value does the source give for “QVQLVVSGGGLVQAGGSLRLICAASGFSFFFYALGWYSQAPGKDRELHATINWSGASTYYADSVMGRFTISRDNATNTVYLQMNSLKPEDTAVYYCAKDGHYPLVYLAFDYWGQGTQVTGSS” here?
Answer: low polyreactivity

Question: For “QVQLVVSGGGLVQAGGSLRLSCAASGFTFGYYAMGWYRQAPGKERELVAAITASGARTYYADSVKGRFTISRDNAKNTVYLQMNSLKPEDTAVYYCAAYTNAYRERWPDYGYWGQGTQVTVSS”, which “polyreactivity (PSR sort gate)” value is on record?
Answer: high polyreactivity

Question: With “QVQLVVSGGGLVQAGGSLRLSCAASGRTFYRYAMGWYRQAPGKEWELVAAISASGGITYYADSVKGRFTISRDNAKNTVYLQMNSLKPEDTAVYYCKAVWRKTEYDYWGQGTQVTVSS” as the sequence, how does the “polyreactivity (PSR sort gate)” value read?
Answer: high polyreactivity

Question: For “QVQLVVSGGGLVQAGGSLRLSCAASGSIFPYYTMGWYRQAPGKEWELVAAISGSGTSTYYADSVKGRFTISRDNAKNTVYLQMNSLKPEDTAVYYCAKRFRYGYVNYYYWGQGTQVTVSS”, which “polyreactivity (PSR sort gate)” value is on record?
Answer: low polyreactivity

Question: With “QVQLVVSGGGLVQAGGSLRLSCATTGRIFHRSAMGWYRQAPGKERGLVAGISSSGGSTYADSVKGRFTISRDNAKNTVYLQMNSLKPEDTAVYYCAAKWRHSGGGMYYWGQGTQVTVSS” as the sequence, how does the “polyreactivity (PSR sort gate)” value read?
Answer: high polyreactivity

Question: For “QVQLVVSGGGLVQQGGSLRLSCAASGTFRYYTMGWYRQAPGKERELVAAISRSGGRSYYADSVTGRCTISRDNAKNTVDLPMNSLKPEDTAVYYCAARYKLYYPDYYYWGQGTQVTVSS”, which “polyreactivity (PSR sort gate)” value is on record?
Answer: high polyreactivity

Question: For “QVQLVVSGGVLVQAGGSLRLSCAASGRTFASYTMGWYIQAAGKERELVAAISRGGNTYYADSVKGRFTISRDIAKNTVYLQMNSLKPDDTAVYYCAATAVKYDRRFYYWGQGTQVTVSS”, which “polyreactivity (PSR sort gate)” value is on record?
Answer: high polyreactivity

Question: For “QVQLVVSGPGLFQAGGSLRISCAPSGFIFYNYAMGWYRQAPGKERELVAAISRSGGSTYYADSVKGRFTISRDNAKNTVYLQMNSLKPEDTAVYYCKVGYGRGSTIGGYDYWGQGTQVTVSS”, which “polyreactivity (PSR sort gate)” value is on record?
Answer: high polyreactivity

Question: With “QVQLVYSGGGLVQAGGSLRLSCAASGISFSQYAMGWYRQAPGKERELVASISSGGRTNYADSVKGRFTISRDNAKNTVYLQLNSLTPEDTAVYYCAAEQWGWYWYDYWGQGTQVTVSS” as the sequence, how does the “polyreactivity (PSR sort gate)” value read?
Answer: high polyreactivity

Question: For “QVQMQESGGGLVLAGGSLRLSCASSGSISAQAYMGWDRQAPGKEREHVAGINYGDNTNYADSVKGRFTISRDNEHRVSADEQPETGRYRGVLLRGFLELFYYYIYWGQGTQVTVSS”, which “polyreactivity (PSR sort gate)” value is on record?
Answer: high polyreactivity

Question: Which “polyreactivity (PSR sort gate)” value does the source give for “QVQMQESGGGLVQAGGSLRLICAASGTILYSLGMGWYRQATGKRREFVASITWGTTTNYAERVKGRFTISSDNAKNTVYPKIISLKPEVTAVYYCASPPFGDSSFHYWGQGTQVTVSS” here?
Answer: low polyreactivity

Question: With “QVQMQESRGGLVQAGGSLRLSCAASGTITTLPAMGWNRQAPGKEREFVAGIDTGAITNYADSVKGRFTISRDNAKNTVYLQKNSLKPEVTAVYYCAVFPAAYDYYERYYTYWGQGTQVTVMS” as the sequence, how does the “polyreactivity (PSR sort gate)” value read?
Answer: low polyreactivity
